Results on 109 sequences are retold here after the supplement of paper PMC9942255.

For the data set, the system named is Bacillus subtilis DB104 (SP-AmyQ fusion secretion). Nature of the data set: AmyQ secretion efficiency, weighted average sort bin (1 = best secretion, 10 = worst) (bin number (weighted average, 1-10)); higher = lower secretion efficiency. A digest of the protocol: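 The secretion score gives the average bin number weighted by read frequency and normalised to beads per bin, with low-abundance sequences excluded. Bins were 10 equally populated green/red fluorescence ratio fractions of occupied ~65 nL alginate beads, sorted by large-particle flow cytometry. The beads held fluorescein-starch and about 0.3 cells each of an amyE-integrated B. subtilis DB104 library fusing designed signal peptides to mature AmyQ, and they were grown about 13 h at room temperature and stained with nile red before sorting and Illumina sequencing.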

Several values for one entry are separate records, joined by “and”; a condition that tells them apart may be missing. Identical values can stand only once.

For MKKLLAAGIIGLLTVSIASPSFQAEK, the AmyQ secretion efficiency worked out at 7.82.

MKKLLAAGIIGLLTVEEESPSFAAEK: the AmyQ secretion efficiency is 6.63.

For MNKPTKLFSTLALAAAAAAGGAGTIHAQQP, the AmyQ secretion efficiency was found to be 1.43.

The sequence MKLSVKIAGVLTVAAAAMTAKMYNTAKGN returned an AmyQ secretion efficiency of 6.07.

The sequence MKKVLMAFIICLSLILSVLAAPPSGGKAESV returned an AmyQ secretion efficiency of 5.

Turning to MKKWIYVVLVLSIAGIGGFSVHAASR, the AmyQ secretion efficiency was determined as 5.28.

The sequence MMKLLAAGIIGLLTVSIASPSFAAEK yielded an AmyQ secretion efficiency of 2.05.

Regarding MKVCQKSIVRFLVSLIIGTFVISVPFMANAQSE, the AmyQ secretion efficiency was 1.52.

The sequence MRKKHQTISLLIIFLLASAVLAKPIEAHTV gave an AmyQ secretion efficiency of 2.69.

As to MTMLRKIIGWILLLCIIPLFAFTVIMSGKEV, the AmyQ secretion efficiency was found to be 7.42.

For MKKRITYSLRRLLAVVAFAFTDSSKAKAAEA, the AmyQ secretion efficiency amounted to 5.28.

MKKRFSLIMMTGLLFGLTSPAFAASN registered an AmyQ secretion efficiency of 2.36.

As for MKKKLAAGLTASAIVGTTLVVTPAEVATI, the AmyQ secretion efficiency worked out at 6.56.

MLKKKWMVGLLAGCLAAGGFSYNAFFTEN returned an AmyQ secretion efficiency of 6.5.

With MSNLCVMMLLFSAIASFPVSAQAKDQ, the AmyQ secretion efficiency stood at 3.93.

MAIIIAIIAAVIVIAALITFNVRNLSPG registered an AmyQ secretion efficiency of 7.04.

Sequence MKKRLIGFLVLVPALIMIEANKK returned an AmyQ secretion efficiency of 6.53.

Regarding MKVLLSALLLLLFAFEPSYSGKKL, the AmyQ secretion efficiency came out at 5.87.

Consider MKKKLAAGLTASAIVGTTLVVTPAEKATI, for which the AmyQ secretion efficiency was 7.23.

The sequence MKKQIITATTAVVLGSTLFAGAQSAQSI showed an AmyQ secretion efficiency of 4.07.

MKRIRIPMTLALGAALTIAPLVLTVFAALSSFASAEEN had an AmyQ secretion efficiency of 6.39.

In turn, MKRFSTAYLLLGILCSAAVFLIGAPSRCLGAEV showed an AmyQ secretion efficiency of 3.15.

Take MKNMSCKLVVSVTLFFSFLTIGPLAHLQNS: the AmyQ secretion efficiency came to 6.

Sequence MKLWMRKTLVVLFTIVTFGLVSPPAALMFDKP gave an AmyQ secretion efficiency of 3.85.

The sequence MKKAAAVLLSLGLVFGFSYGAGHVAEKKTK showed an AmyQ secretion efficiency of 6.23.

In turn, MRKFLKSNFRFLLAAALGISLLASSNFIKASND came in with an AmyQ secretion efficiency of 4.13.

Sequence MKRIRIPMTLALGAALTIAPLSFISAEEN gave an AmyQ secretion efficiency of 3.01.

Regarding MKKRFFGPIILAFILFAGAIKIPS, the AmyQ secretion efficiency came to 5.25.

MFFVLMAFIICLSLILSVLAAPPSGAKAESV registered an AmyQ secretion efficiency of 5.38.

Turning to MKKAFLVFLMVVLVLMVFLTVKQQESVAQAKQL, the AmyQ secretion efficiency is 3.05.

MPIKKKVMMCLAVTLVFGSMSFPTLTNSGGDED had an AmyQ secretion efficiency of 6.4.

For the sequence MLKKIALTLCPAIVGSLLFFTAPASVHVS, the AmyQ secretion efficiency was found to be 6.13.

Sequence MKSLPYTIALLFCGLIIVSMAAKGHKK had an AmyQ secretion efficiency of 6.13.

Take MKRLLSTLLIGIMLLVTFAPSAFAKQD: the AmyQ secretion efficiency is 2.15.

The sequence MLCVMMLLFSAIASFPVSCQAKDQ came in with an AmyQ secretion efficiency of 5.97.

Sequence MNKPTKQRTKLALAAGMTAAAAGGAGTIHAQQP gave an AmyQ secretion efficiency of 6.94.

In turn, MNFKKTVVSALSISALALVSVSGVASAHEI yielded an AmyQ secretion efficiency of 3.04.

Sequence MKKWMITIAMSYTSTKRYFVFISPLKSHKT displayed an AmyQ secretion efficiency of 7.55.

MAIIIAIIAAVIVIAALITFEDDEDDDRNASPG yielded an AmyQ secretion efficiency of 6.7.

For the sequence MLKKKWMVGLLAGCLAAGEEPYNAFATEN, the AmyQ secretion efficiency stood at 4.04.

On to MKKKQVMLALTAAAGLGLTALHSAPATKAAPL, for which the AmyQ secretion efficiency amounted to 3.15.

MKRLLLGILCSAAVFLIGAPSRALGAEV yielded an AmyQ secretion efficiency of 2.5.

In turn, MTRLLSTLLIGIMLLTFAPSAFAKQD had an AmyQ secretion efficiency of 1.6.

Regarding MPYLKRVLLLLVFFLFMFLFSAVTATASAQTG, the AmyQ secretion efficiency worked out at 1.35.

Take MKSKGSIMACLILFSFTITTFINTETCSAFSN: the AmyQ secretion efficiency was 4.49.

In turn, MKKQIITATTAVVLGSTLFAGACSAQSI registered an AmyQ secretion efficiency of 2.49.

Sequence MKKRKRRNFKRFIAAFLVLALMIDVLAKST yielded an AmyQ secretion efficiency of 7.65.

As for MKQKRGRKACLILFSFTITTFINTETISAFSN, the AmyQ secretion efficiency was found to be 3.84.

Consider MTKKAWFLPLVCVLLISGWLAPAASASAQED, for which the AmyQ secretion efficiency is 2.97.

MKKVMLATALFLGLTFTTFAPAGANAADL yielded an AmyQ secretion efficiency of 2.89.

MMTMLFHSTLIVLLFFSFFGVQPIHAKKQ returned an AmyQ secretion efficiency of 2.1.

As to MKRRKKKVLTGSVLSLGLLVSASPAFATSP, the AmyQ secretion efficiency was found to be 1.34.

Consider MKVPKTMLLSTAAGLLLSLDPTSVSAHYV, for which the AmyQ secretion efficiency was determined as 3.57.

Consider MRKYTVIASILLSFLSVLSGGHHESKARRR, for which the AmyQ secretion efficiency was determined as 7.19.

Sequence MKKFMNFSSVMLATALFLGLTPAGANAADL registered an AmyQ secretion efficiency of 4.23.

In turn, MKKLLAAGIIGLLTVSIASPGFVFSFAAEK had an AmyQ secretion efficiency of 8.62.

For the sequence MGLGKKLSVAVAASFMSLSISLPGVQAEDD, the AmyQ secretion efficiency stood at 4.28.

Turning to MLCVMMLLFSAIASFPVSIQAKDQ, the AmyQ secretion efficiency was found to be 6.18.

The sequence MKLSVKIAGVLTVAAAAMTAKMYATPKGN came in with an AmyQ secretion efficiency of 5.67.

Sequence MGTTIIILLLAVIIAAAAAGVAFYV gave an AmyQ secretion efficiency of 7.47.

The sequence MKLWMRKTLVVLFTIVTFGLVSPPAALMSDKP showed an AmyQ secretion efficiency of 3.94.

On to MRKLWISLLFALTLIFTMAFSNMSAQAAGK, for which the AmyQ secretion efficiency is 2.67.

With MKLSVKIAGVLTVAAAAMTAKMYATFTGTFAATAKGN, the AmyQ secretion efficiency came out at 7.49.

MKKSQYFIVFICFFVLFSVHPIAAAGADS: the AmyQ secretion efficiency was found to be 3.85.

In turn, MKKLLAAGIIGLLTVSIASPSFGAEK came in with an AmyQ secretion efficiency of 4.39.

As for MKRIRIPMTLALGAALTIAPLSFRSAEEN, the AmyQ secretion efficiency turned out to be 7.87.

Sequence MKSKGSIMACLILFSFTITEISAFSN registered an AmyQ secretion efficiency of 6.82.

On to MHLIRAAGAVCLAVVLIAGCRFNEDQHQAEGENT, for which the AmyQ secretion efficiency is 5.94 and 6.42.

MKKWMAGLFLAAAVLLCLMVPQQQQGASS had an AmyQ secretion efficiency of 6.69.

Take MGLGKKLSVAVAASFMSLSISLPGVQDAEG: the AmyQ secretion efficiency turned out to be 3.93.

As for MPYLKRVLLLLVTGLFMSLFAVTATCSAQTG, the AmyQ secretion efficiency amounted to 1.27.

As for MKKIVSILFMFGGFSQFQPSTVFAADK, the AmyQ secretion efficiency came out at 4.29.

The sequence MKRLFMKASLVLFAVVFVFAVKGAPLKAETH had an AmyQ secretion efficiency of 2.67.

MSGGGILALFVLSLGLLSFMVTPVSAASK displayed an AmyQ secretion efficiency of 2.53.

MKRLLVSLRVWMVFLMNWVTPDRKTAAGAVY displayed an AmyQ secretion efficiency of 7.15.

The sequence MKKWMITIAMLILAGIALFVFISPIKSHKT displayed an AmyQ secretion efficiency of 6.77.

MKRTWNVCLIALLMVLLVAIFVTSPFHAEAKKP had an AmyQ secretion efficiency of 2.11.

The sequence MKKWIYVVLVLSIAGIGGFSVHAKKR gave an AmyQ secretion efficiency of 6.58.

Sequence MNKLKRLSMLTVMIASVFIFSSHSLAAQY came in with an AmyQ secretion efficiency of 2.4.

With MIFTIVVGFLSVLGLAAVFPLTAQAEKA, the AmyQ secretion efficiency amounted to 2.34.

MRKYTVIASILLSFLSVLFGFHHESKAFPV gave an AmyQ secretion efficiency of 3.04.

The sequence MTSSLIGFLVLVPALIMSGITLIEANKK registered an AmyQ secretion efficiency of 3.95.

Sequence MRNLTKTSLLLAGLCTAAQMVFVTHASAAPS came in with an AmyQ secretion efficiency of 1.69.

MKVPKTMLLSTAAGLLLSLTVSAHYV returned an AmyQ secretion efficiency of 5.02.

In turn, MKQIKKKRTSFMLLAMTGQTALAKDV registered an AmyQ secretion efficiency of 6.55.

Sequence MLKKKWMVGLLAGCLAAGGFSYNQFATEN had an AmyQ secretion efficiency of 6.91.

On to MMKCVICLSLLVFGTTAAHAEET, for which the AmyQ secretion efficiency stood at 3.1.

On to MNKKYFVLIVCIIFTSALFPTRRRVTAAQG, for which the AmyQ secretion efficiency was 3.61.

For the sequence MIAYFGKCLLLVTIMFLGVLFGMFQANHG, the AmyQ secretion efficiency was 6.57.

In the case of MGLGKKLSVAVAASFMSLSISLPGCQAAEG, the AmyQ secretion efficiency was 1.48.

MRSYIKVLTMCFLGLILFVPTTLADNS: the AmyQ secretion efficiency came to 1.67.

MSGSRVITCVMAASLTLGSLLPAGYASAKED: the AmyQ secretion efficiency came to 3.72.

The sequence MKKAAAVLLSLGLVFGFSYGAGHVVEAKTK returned an AmyQ secretion efficiency of 2.99.

MKSCKQLIVCSLAAILLLLSLTFIPSVSFAADS had an AmyQ secretion efficiency of 3.91.

For MKKQIITATTAVVLGSTGAASAQSI, the AmyQ secretion efficiency amounted to 4.95.

As for MKKWRGGSQSGAIAIVLFMYTKGEAKAAGM, the AmyQ secretion efficiency was 6.49.

MKSKWMSGLLLVAVGFSFTQVMWHAGET yielded an AmyQ secretion efficiency of 7.01.

Regarding MFKKLKRRKSALTFSLSLVLPLDGHAKAQEV, the AmyQ secretion efficiency turned out to be 6.09.

As to MKKRKRRNFKRFIAAFLVLALMILSLVPADVLAKST, the AmyQ secretion efficiency worked out at 2.47.

MNKFLKSNFRYYTTGALGISLLASSNFIKASND had an AmyQ secretion efficiency of 7.

Turning to MNLRKNSFFILLSSALSLGMLVSAAPVLATSS, the AmyQ secretion efficiency is 1.98.

Sequence MKKRKRRNFKRFIAAFLVLALMISLVPADFLAKST yielded an AmyQ secretion efficiency of 4.42.

Take MKKSRRALLLLLFAFEPSASGKKL: the AmyQ secretion efficiency came to 7.28.

Take MRPVFPLILSAVLFLSCFFGARQTEGSASKR: the AmyQ secretion efficiency amounted to 4.92.

In turn, MKRKLLSSLAISALSLGLLVSAPTASFGAES gave an AmyQ secretion efficiency of 3.96.

The sequence MKSCKQLIVCSLAAILLLIPSVSFAADD had an AmyQ secretion efficiency of 2.66.

In the case of MKLRKSTKYQSYSLGLLVSASPAFATSP, the AmyQ secretion efficiency came to 6.69.

In turn, MRKKRVITCVMAASLTLGSLLPAGYASAASD registered an AmyQ secretion efficiency of 1.13.

The sequence MLKKKWMVGLLAGCLAAGGFSYNCFATEN yielded an AmyQ secretion efficiency of 3.91.
